Measured values reported in patent publication US5990094A, “Inhibitors of sorotonin N-acetyltransferase” (The Rockefeller University, priority 1998, dated 1999).

Tests used:
Assay in all cases: purified protein, by the assay type
[1] = substrate: NCCc1c[nH]c2ccccc12
[2] = substrate: NCCc1c[nH]c2ccc(O)cc12
[3] = substrate: CC(=O)SCCNC(=O)CCNC(=O)[C@H](O)C(C)(C)COP(=O)(O)OP(=O)(O)OC[C@H]1O[C@@H](n2cnc3c(N)ncnc32)[C@H](O)[C@@H]1OP(=O)(O)O
[4] = substrate: CC(N)Cc1c[nH]c2ccccc12; details: other: Table 1, tryptamine analogs
[5] = substrate: CNCCc1c[nH]c2ccccc12; details: other: Table 1, tryptamine analogs
[6] = other: ionic strength I~0.1, GST-AANAT
[7] = other: 1 mM (near saturating) concentration of the fixed substrate, GST-AANAT
[8] = other: Table 1, tryptamine analogs

B1: GST-AANAT fusion (Ovis aries) (protein)
chain: MSTPSVHCLKPSPLHLPSGIPGSPGRQRRHTLPANEFRCLTPEDAAGVFEIEREAFISVSGNCPLNLDEVQHFLTLCPELSLGWFVEGRLVAFIIGSLWDEERLTQESLALHRPRGHSAHLHALAVHRSFRQQGKGSVLLWRYLHHVGAQPAVRRAVLMCEDALVPFYQRFGFHPAGPCAIVVGSLTFTEMHCSLRGHAALRRNSDR
Km [1, 6]: 100 µM
Km [2, 7]: 241 µM
Km [3, 7]: 289 µM
Km [3, 6]: 100 µM

B2: unmodified AANAT (Ovis aries) (protein)
chain: B1 chain
Km ([3]; other: 1 mM (near saturating) concentration of the fixed substrate, AANAT): 178 µM

B3: AANAT (Ovis aries) (protein)
chain: B1 chain
Km [1, 8]: 170 µM
Km [4]: 2700 µM
Km [2, 8]: 240 µM
Km [5]: 3800 µM
